US20150353909

T1: HA3-RUB-GST, Q9SHE7
T1 chain: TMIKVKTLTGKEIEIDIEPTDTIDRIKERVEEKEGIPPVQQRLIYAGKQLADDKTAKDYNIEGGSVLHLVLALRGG


Experiments:
[1] = target: K48-tetraubiquitin chains, P0CG48
[2] = target: purified recombinant linear UB dimers
[3] = target: K63-tetraubiquitin chains, P0CG48
[4] = target: purified recombinant linear UB tetramers
[5] = target: HA3-UBQ-GST [GST: P08515]
[6] = target: purified recombinant linear UB trimers
HA3-RUB-GST, Q9SHE7 = target: T1, HA3-RUB-GST, Q9SHE7

Sequence of K48-tetraubiquitin chains, P0CG48 (P0CG48 whole entry, looked up): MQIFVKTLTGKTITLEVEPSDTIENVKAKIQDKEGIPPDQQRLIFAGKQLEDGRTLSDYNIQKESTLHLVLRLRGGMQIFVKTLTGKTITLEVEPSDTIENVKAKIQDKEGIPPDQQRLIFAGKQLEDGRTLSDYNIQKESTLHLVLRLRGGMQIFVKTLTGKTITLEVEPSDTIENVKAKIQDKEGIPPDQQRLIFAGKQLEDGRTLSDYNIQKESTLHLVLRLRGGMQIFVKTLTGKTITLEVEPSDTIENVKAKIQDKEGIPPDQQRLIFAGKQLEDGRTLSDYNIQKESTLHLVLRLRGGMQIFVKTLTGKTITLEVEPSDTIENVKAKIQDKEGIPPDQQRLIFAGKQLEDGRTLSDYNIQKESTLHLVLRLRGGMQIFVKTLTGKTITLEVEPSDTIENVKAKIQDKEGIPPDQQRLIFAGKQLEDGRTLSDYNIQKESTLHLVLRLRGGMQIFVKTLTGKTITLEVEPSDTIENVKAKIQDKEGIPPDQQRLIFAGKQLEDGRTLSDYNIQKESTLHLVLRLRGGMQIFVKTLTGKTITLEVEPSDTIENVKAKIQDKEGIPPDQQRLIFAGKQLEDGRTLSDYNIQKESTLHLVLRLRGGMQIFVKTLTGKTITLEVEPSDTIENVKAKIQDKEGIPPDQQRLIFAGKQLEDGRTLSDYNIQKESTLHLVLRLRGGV
Sequence of K63-tetraubiquitin chains, P0CG48 (P0CG48 whole entry, looked up): as above

Row | Protein | in vitro deubiquitylation activity [1] | in vitro deubiquitylation activity [2] | in vitro deubiquitylation activity [3] | in vitro deubiquitylation activity [4] | in vitro deubiquitylation activity [5] | in vitro deubiquitylation activity [6] | in vitro deubiquitylation activity (HA3-SUMO-GST, P55852) | in vitro deubiquitylation activity (HA3-RUB-GST, Q9SHE7)
1 | His-tagged OTU7a (protein) MAKTKQQKSKPKKQPHQKQGKDCDLSQFRAQLDALGLKIIQVTADGNCFFRAIADQLEGNEDEHNKYRNMIVLYIVKNREMFEPFIEDDVPFEDYCKTMDDDGTWAGNMELQAASLVTRSNICIHRNMSPRWYIRNFEDTRTRMIHLSYHDGEHYNSVRSKEDACGGPARPVVIEADAKVSAASKQAKATESKSKNKADKCHVNAGAIKVVMSGSCCDNTEKAEQVLLQVNGDVDAAIEFLIADQGMESLTENDTETASASDTINPKHASDSPMENTEQAREELIEEESASGNNSETVQAKCTTQTDDKKIPRNKTCPCGSKKKYKSCCGTATGRSSVKLLVSQTMESKKGRKNLRRGTSNEVEANAPDVGALCI | + | - | ++ | - | ++ | - | - | +
2 | His-tagged OTU9 (protein) MGYEPDPDALRWGLHDLEVCTLTNAGSCSSVTRYESGGGGTQGYVREGYNQPVTGYVDNDAVIAQFYQDELSRVARAEASGINSLSPTSVVAQDWPHPHQGQENQGEAIDITQESDILHNHNGNMEDKNVARIRFEGGQSSPSRDDDSVCSVEIEEESWSEVGKRLNQMIPIAHVPKINGELPSEDEQISDHERLFQRLQLYGLVENKIEGDGNCQFRSLSDQLYRSPEHHNFVREQVVNQLAYNREIYEGYVPMAYNDYLKAMKRNGEWGDHVTLQAAADLFGVRMFVITSFKDTCYIEILPHFQKSNRLICLSFWAEVHYNSIYPEGELPIPEGKKKKKYWVF | ++ | - | ++ | - | ++ | - | - | +
3 | GST-OTU10 (protein) MVSHEENTSIVEWFLGPHPYTYPPYGIEMIHEDDEVAVAHHHHHHQSGEYYREYEDHRSSDVDNDEIIARTLQDDFLQLEIAESNDYSHQNQQQQHQQEGYTNNYSNNNNGYAWNDQSPAVDYSSEWIGNDNDQDGRSDDSVNVFSCSSPSDTDEYVYSWESDQCDADGEFGRRLNQMVPIPYIPKINGEIPPEEEAVSDHERLRNRLEMFDFTEVKVPGDGNCQFRALADQLYKTADRHKHVRRQIVKQLKSRPDSYQGYVPMDFSDYLRKMSRSGEWGDHVTLQAAADAYRVKIVVLTSFKDTCYIEILPTSQESKGVIFLSFWAEVHYNAIYLNRDTSETELQRKRKWWRFGN | ++ | - | +++ | - | ++ | - | - | +
